Results reported in the supplement of paper PMC9112550, “Optimization of the antimicrobial peptide Bac7 by deep mutational scanning” (BMC Biology, 2022).

Tested on: Escherichia coli TOP10
Experiment: shrunken log2 fold change of peptide-encoding DNA abundance (4.5 h post-induction vs induction); higher = less antimicrobial activity (less host growth inhibition)
Settings: time post-induction: 4.5 h; library: site-saturation at positions 5, 18, 19, 20
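Also: peptides expressed intracellularly from a pBAD plasmid library in pooled LB shake-flask culture, induced with 0.3% L-arabinose, DNA abundance read by NGS, three biological replicates, DESeq2 with apeglm shrinkage.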

Row | Sequence | shrunken log2 fold change
1 | RRIRIRPPRLPRPRPRPASRPRP | -0.106
2 | RRIRYRPPRLPRPRPRPIYHPRP | -0.85
3 | RRIRLRPPRLPRPRPRPKFTPRP | -0.289
4 | RRIRYRPPRLPRPRPRPQTRPRP | -0.322
5 | RRIRCRPPRLPRPRPRPCSMPRP | -0.0191
6 | RRIRERPPRLPRPRPRPPHNPRP | 0.637
7 | RRIRLRPPRLPRPRPRPDGRPRP | -0.00938
8 | RRIRQRPPRLPRPRPRPSHWPRP | -0.153
9 | RRIRPRPPRLPRPRPRPQEPPRP | 0.265
10 | RRIRWRPPRLPRPRPRPWFFPRP | -0.0638
11 | RRIRLRPPRLPRPRPRPVEAPRP | 0.224
12 | RRIRDRPPRLPRPRPRPLRMPRP | 0.409
13 | RRIRERPPRLPRPRPRPIPTPRP | 0.0239
14 | RRIRVRPPRLPRPRPRPNHMPRP | -0.0124
15 | RRIRWRPPRLPRPRPRPMEFPRP | -0.145
16 | RRIRTRPPRLPRPRPRPKMYPRP | -0.52
17 | RRIRERPPRLPRPRPRPMRVPRP | 0.501
18 | RRIRTRPPRLPRPRPRPCYNPRP | -0.645
19 | RRIRNRPPRLPRPRPRPYKTPRP | -0.0391
20 | RRIRGRPPRLPRPRPRPYNGPRP | -0.0131
21 | RRIRIRPPRLPRPRPRPMLLPRP | 0.0902
22 | RRIRQRPPRLPRPRPRPELAPRP | 0.577
23 | RRIRERPPRLPRPRPRPDDPPRP | -0.157

Row | Sequence | shrunken log2 fold change
24 | RRIRVRPPRLPRPRPRPGGHPRP | 0.13
25 | RRIRGRPPRLPRPRPRPAVHPRP | 0.536
26 | RRIRGRPPRLPRPRPRPQTRPRP | 1.12
27 | RRIRPRPPRLPRPRPRPGVPPRP | 0.301
28 | RRIRVRPPRLPRPRPRPHTLPRP | -0.571
29 | RRIRCRPPRLPRPRPRPCYYPRP | -1.31
30 | RRIRGRPPRLPRPRPRPPPYPRP | 0.611
31 | RRIRWRPPRLPRPRPRPMVNPRP | -0.0548
32 | RRIRGRPPRLPRPRPRPCTQPRP | 0.196
33 | RRIRRRPPRLPRPRPRPQSDPRP | 0.244
34 | RRIRQRPPRLPRPRPRPRHIPRP | -0.319
35 | RRIRLRPPRLPRPRPRPHAQPRP | 0.133
36 | RRIRMRPPRLPRPRPRPLYEPRP | 0.362
37 | RRIRVRPPRLPRPRPRPHKIPRP | -0.53
38 | RRIRDRPPRLPRPRPRPHPQPRP | 0.256
39 | RRIRPRPPRLPRPRPRPCCEPRP | -0.116
40 | RRIRIRPPRLPRPRPRPPLRPRP | 0.0855
41 | RRIRNRPPRLPRPRPRPPFYPRP | -0.403
42 | RRIRCRPPRLPRPRPRPADMPRP | -0.115
43 | RRIRHRPPRLPRPRPRPSTVPRP | 0.00256
44 | RRIRIRPPRLPRPRPRPHNYPRP | -0.376
45 | RRIRRRPPRLPRPRPRPELLPRP | 0.147
46 | RRIRGRPPRLPRPRPRPTHPPRP | 0.868

Row | Sequence | shrunken log2 fold change
47 | RRIRFRPPRLPRPRPRPLWHPRP | -0.248
48 | RRIRQRPPRLPRPRPRPGCLPRP | 0.129
49 | RRIRPRPPRLPRPRPRPGHDPRP | 0.235
50 | RRIRYRPPRLPRPRPRPNYSPRP | -1.39
51 | RRIRNRPPRLPRPRPRPGFTPRP | 0.0826
52 | RRIRIRPPRLPRPRPRPMQFPRP | -0.343
53 | RRIRWRPPRLPRPRPRPIQNPRP | -0.394
54 | RRIRARPPRLPRPRPRPMHIPRP | -0.132
55 | RRIRMRPPRLPRPRPRPAYIPRP | 0.768
56 | RRIRHRPPRLPRPRPRPTLQPRP | -0.0103
57 | RRIRCRPPRLPRPRPRPEWQPRP | -0.0271
58 | RRIRLRPPRLPRPRPRPCREPRP | 0.251
59 | RRIRPRPPRLPRPRPRPLAIPRP | 0.00474
60 | RRIRVRPPRLPRPRPRPQYPPRP | -0.101
61 | RRIRGRPPRLPRPRPRPPSRPRP | 1.11
62 | RRIRCRPPRLPRPRPRPFDYPRP | 0.0472
63 | RRIRHRPPRLPRPRPRPMTRPRP | -0.0247
64 | RRIRWRPPRLPRPRPRPSSSPRP | 0.00035
65 | RRIRVRPPRLPRPRPRPKPSPRP | 0.313
66 | RRIRTRPPRLPRPRPRPMWFPRP | 0.253
67 | RRIRRRPPRLPRPRPRPCKQPRP | -0.0474
68 | RRIRGRPPRLPRPRPRPVPNPRP | 0.581
69 | RRIRHRPPRLPRPRPRPLTMPRP | -0.3

Row | Sequence | shrunken log2 fold change
70 | RRIRKRPPRLPRPRPRPESYPRP | 0.403
71 | RRIRHRPPRLPRPRPRPYGTPRP | -1.41
72 | RRIRWRPPRLPRPRPRPEFFPRP | 0.54
73 | RRIRDRPPRLPRPRPRPTYNPRP | -0.365
74 | RRIRFRPPRLPRPRPRPMVRPRP | 0.0406
75 | RRIRGRPPRLPRPRPRPLYGPRP | -0.105
76 | RRIRIRPPRLPRPRPRPQKQPRP | -0.128
77 | RRIRYRPPRLPRPRPRPSLRPRP | -0.9
78 | RRIRDRPPRLPRPRPRPPHLPRP | 0.0118
79 | RRIRLRPPRLPRPRPRPNFGPRP | 0.0635
80 | RRIRRRPPRLPRPRPRPSHMPRP | 0.157
81 | RRIRMRPPRLPRPRPRPRLIPRP | 0.0709
82 | RRIRKRPPRLPRPRPRPHCTPRP | -0.24
83 | RRIRTRPPRLPRPRPRPNENPRP | 1.59
84 | RRIRCRPPRLPRPRPRPCKLPRP | -0.896
85 | RRIRYRPPRLPRPRPRPKDHPRP | -0.487
86 | RRIRLRPPRLPRPRPRPMKHPRP | -0.409
87 | RRIRRRPPRLPRPRPRPCGEPRP | 0.0238
88 | RRIRSRPPRLPRPRPRPITWPRP | -0.284
89 | RRIRCRPPRLPRPRPRPSKHPRP | -0.553
90 | RRIRTRPPRLPRPRPRPFWHPRP | 0.23
91 | RRIRLRPPRLPRPRPRPRRPPRP | 0.39
